For the series, the system named is K4 kissing-loop RNA reporter. The series can be described thus: apparent KD of K4 kissing-loop reporter; higher = weaker reporter binding. To be noted: Eterna round: R107. As for the experimental part:
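RNA-MaP round R107: designed RNA switches with theophylline, tryptophan, arginine or FMN aptamers are transcribed on-chip within common flanks. They are titrated with a labelled K4 kissing-loop RNA reporter in RNA-MaP buffer (100 mM Tris pH 7.5, 80 mM KCl, 4 mM MgCl2), without ligand or with the indicated ligand. Median apparent KD per design.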

[1] abbreviates: input ligand: theophylline 20 uM.
Where [2] appears, read: input ligand: tryptophan 2.4 mM.
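Note: bound reporter read as fluorescence of individual clusters on recovered sequencing chips by microscopy, with normalized cluster intensities fitted with a binding model.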

“AAAAUUGCGGUCGAAUUAACUUCUUGCAUACGAGGACCGGUACGGCCGCCACUCGAGUCAAGUGAUGUUUGAUAAUCUAUUAUUA [JR_ExcTryptoA_Sub011]”: the “apparent KD of K4 kissing-loop reporter” value reads like this: (input ligand: FMN 200 uM) 190 nM; (input ligand: arginine 13.2 mM) 258 nM; (input ligand: none) 279 nM; under setting [1], 301 nM; under setting [2], 160 nM.

“AAACAAGAUGCAGGAUAUACGGACCCAGUGAUGUUGGGUAGAAUUGUCCCGGCAAUCCUUGUGGCAGUAGAAGGGCAAUAAAAGA [Gexeraora]”: the “apparent KD of K4 kissing-loop reporter” value by setting is: (input ligand: FMN 200 uM) 271 nM; (input ligand: arginine 13.2 mM) 134 nM; (input ligand: none) 169 nM; under setting [1], 144 nM; under setting [2], 151 nM.

On to “AAACAUCACUACUUCUUCGUCCUAGAAGACUAGGAUAUCAGGAAACUGAGAAGGAGUCUCUGCAGUGAUGUUGCAGCUAGGACGA [[K]'-[F2]'-[F1]'-[F1]-[F2]-[K1]-[K2]-[F]''_Design2]”, for which the “apparent KD of K4 kissing-loop reporter” value reads like this: (input ligand: FMN 200 uM) 191 nM; (input ligand: arginine 13.2 mM) 219 nM; (input ligand: none) 194 nM; under setting [1], 249 nM; under setting [2], 280 nM.

As to “AAACAUCACUGGGAGUGAUGUUCUCAGUGACGAGGACCGGUACGGCCGCCACUCGCGAGAGAACUAGUCUAGUCUUGACUGCAUU [Excl Tryptophan A V14]”, the “apparent KD of K4 kissing-loop reporter” value (input ligand: FMN 200 uM) worked out at 277 nM; the “apparent KD of K4 kissing-loop reporter” value (input ligand: arginine 13.2 mM) stood at 333 nM; the “apparent KD of K4 kissing-loop reporter” value (input ligand: none) was determined as 335 nM; the “apparent KD of K4 kissing-loop reporter” value under setting [1] came to 418 nM; the “apparent KD of K4 kissing-loop reporter” value under setting [2] worked out at 398 nM.

On to “AAACAUCACUGGGAGUGAUGUUCUCAGUGACGAGGACCGGUACGGCCGCCACUCGCGAGAGAUAUAGGUAAGUAAUGACAUCAUU [Excl Tryptophan A V5]”, for which the “apparent KD of K4 kissing-loop reporter” value by setting is: (input ligand: FMN 200 uM) 340 nM; (input ligand: arginine 13.2 mM) 282 nM; (input ligand: none) 360 nM; under setting [1], 327 nM; under setting [2], 392 nM.

Take “AAACUUGCAGUGAUGUUGCAAGUAGGUGAUACCAGCAUCGAAAGAUGCCCUUGGCAGCACCAUCUUGUAACAUAGGUAUCACCAA [(H1)-(H2)-(T1)-(T2)-(H)'-(T)'_Design4]”: the “apparent KD of K4 kissing-loop reporter” value (input ligand: FMN 200 uM) is 208 nM; the “apparent KD of K4 kissing-loop reporter” value (input ligand: arginine 13.2 mM) was 208 nM; the “apparent KD of K4 kissing-loop reporter” value (input ligand: none) turned out to be 194 nM; the “apparent KD of K4 kissing-loop reporter” value under setting [1] was 326 nM; the “apparent KD of K4 kissing-loop reporter” value under setting [2] turned out to be 225 nM.

On to “AAAGUUGAUGAGUUGGGUAUGUGUUCCGAAGGAGCGAGAAUUAUCUCAGGUAGGUCGCGGAACAUGAGUGAUGUUCAUGUAUAAA [KL-XArg-A7 #analogue]”, for which the “apparent KD of K4 kissing-loop reporter” value came to 345 nM (input ligand: FMN 200 uM); 436 nM (input ligand: arginine 13.2 mM); 365 nM (input ligand: none); 423 nM under setting [1]; 340 nM under setting [2].

For the sequence “AAAUAAAGCAGUCACCCAGUGAUGUUGGAAGGAGCGUGCGAAAGCACAGGUAGGUCGCCAAAACCUAAUACUGGCUGCUAAAUAA [#03 K4 Arginine A Exclusion]”, the “apparent KD of K4 kissing-loop reporter” value was 242 nM (input ligand: FMN 200 uM); 357 nM (input ligand: arginine 13.2 mM); 285 nM (input ligand: none); 307 nM under setting [1]; 177 nM under setting [2].

In the case of “AAAUAAAGCAGUCAUCCAGUGAUGUUGGAAGGAGCGUGCGAAAGCACAGGUAGGUCGCCAAAACCUAAUAAUGGCUGCUAAAUAA [#SwitchBubble 2 #K4Early]”, the “apparent KD of K4 kissing-loop reporter” value amounted to 170 nM (input ligand: FMN 200 uM); 211 nM (input ligand: arginine 13.2 mM); 176 nM (input ligand: none); 210 nM under setting [1]; 141 nM under setting [2].

Turning to “AAAUAAAGGGCGGCCGCCACUGAUCGCCUCCGCGUGGGUAUGUAGUGAUGUUAUAUGGCCGCCAUCAGGACCGGGCCAAAUAAAA [#10 K4 Tryptophan B Same State]”, the “apparent KD of K4 kissing-loop reporter” value (input ligand: FMN 200 uM) worked out at 214 nM; the “apparent KD of K4 kissing-loop reporter” value (input ligand: arginine 13.2 mM) came out at 187 nM; the “apparent KD of K4 kissing-loop reporter” value (input ligand: none) is 340 nM; the “apparent KD of K4 kissing-loop reporter” value under setting [1] was 272 nM; the “apparent KD of K4 kissing-loop reporter” value under setting [2] was 193 nM.

“AACAGCAAUGCGGCCGCCACUUCGAGGUCAGUGAUGUUGACAGAAUUAAAUAAAGAUCCCAAGAGGAGGACCGGGCAGUGCUGUU [whbob_SS_Tryp_B_t24]”: the “apparent KD of K4 kissing-loop reporter” value (input ligand: FMN 200 uM) turned out to be 534 nM; the “apparent KD of K4 kissing-loop reporter” value (input ligand: arginine 13.2 mM) stood at 417 nM; the “apparent KD of K4 kissing-loop reporter” value (input ligand: none) turned out to be 674 nM; the “apparent KD of K4 kissing-loop reporter” value under setting [1] is 527 nM; the “apparent KD of K4 kissing-loop reporter” value under setting [2] turned out to be 416 nM.

For the sequence “AACGCUGUGAAUAACACAGCGAAUAAUUCGCGAGGACCGGUACGGCCGCCACUCGCUAACUGCGAGUGAUGUUCGAUAAUAAAAU [Mat - Mod of OpenEnded 3 - D12]”, the “apparent KD of K4 kissing-loop reporter” value (input ligand: FMN 200 uM) is 148 nM; the “apparent KD of K4 kissing-loop reporter” value (input ligand: arginine 13.2 mM) was found to be 116 nM; the “apparent KD of K4 kissing-loop reporter” value (input ligand: none) stood at 177 nM; the “apparent KD of K4 kissing-loop reporter” value under setting [1] was found to be 237 nM; the “apparent KD of K4 kissing-loop reporter” value under setting [2] worked out at 113 nM.

“AACUAUUAAUGAAUUACAUUUUAUUUUUCUCGAGGACCGGUACGGCCGCCACUCGUACUAUAGUGAUGUUAUAGAUAAGUCCUAA [JR_ExcTryptoA_Sub021]”: the “apparent KD of K4 kissing-loop reporter” value (input ligand: FMN 200 uM) came to 118 nM; the “apparent KD of K4 kissing-loop reporter” value (input ligand: arginine 13.2 mM) was 184 nM; the “apparent KD of K4 kissing-loop reporter” value (input ligand: none) amounted to 134 nM; the “apparent KD of K4 kissing-loop reporter” value under setting [1] was 177 nM; the “apparent KD of K4 kissing-loop reporter” value under setting [2] turned out to be 71.3 nM.

(Values after the supplement of paper PMC9170038.)
